# Results: a protein production outcome set (Wang et al. 2014)
# Test: label from the status in PepcDB records
row,Sequence,protein production
1,MSVCPTNFDEKVECPFVDRKEFTEAFEKAFNNIDQQNYSILVYYGVAGIGKTSLRKELPALLEKHNESDLHTRVIWTSIDFATEQYKQPYKFLEVLSSQLRQKYNVKFNSFDIALATYWKKINPHNPLVKENYSEGSIVHDILDVCDEFVPANLIPNVYNLTKNLPKHYQKWVLKREEDISGLQNLEPTEIYKRLPVYLAHDLADHLQNTSELAVIFIDTYEALWEKERDKGSFNSRDEWLRKLIEKIQKSCLWVICGKESLRWEEVDEDWKNYLDQRKIGKLPEKDALDLLKQCGITEEDIQNVLIESSEGVPYYLELSIDIYRKIKKKKQPTPENFAKVPEGIFCRFVKYLDREEKETLKVLSVPRYWNRELFKILVEKFNTGYPATSFSELHSFSFMDVDDKGKCSMHQLMRKSLKDYQDQDLKKEVHNFMLDFYSNQLKDIDIKEITPEHEIALTEAFYHAKEALEAEDLLKWFISVSDPFNRAAFWQLITPMYEEMLQILEAKHGPEHKDIVTTLNILDVLYYKMGEYKKALQFSERALAIGETILGVQHPDVATSLDNLAGLYESMGNYKQALQLSERALEIYEKVLGPQHRDVAITLDNLAGLYESMGEYEKALIFYQRTIEIKEKVLGPQHSNFATSLDNLAVLYRQMGEYEKALQLSQRALEIYEKVLGPQHPDIATTLNNIALLYDSMGDYQKTLPLYQRALEINEKVFGPQYLGIATTLNNLAGFYRRVGDYEKALSLSQRSLEIDEKVLGSQHPDVARTLNSLALIYENIGDYEKALAFYQRSLDIREKVLGPQHPDVGRTLNNLARLYEIMGDHEKALTLYQRTIEIKEKALGPQHPDVATILNNLAGLHYRIGEYKKALPLYQRALDIVEKKLGQNQPNSVVIKNNYNRLLSKMSENEKK,failed
2,MEIEVKFRVNFEDIKRKIEGLGAKFFGIEEQEDVYFELPSPKLLRVRKINNTGKSYITYKEILDKRNEEFYELEFEVQDPEGAIELFKRLGFKVQGVVKKRRWIYKLNNVTFELNRVEKAGDFLDIEVITSNPEEGKKIIWDVARRLGLKEEDVEPKLYIELING,not failed
3,KKGRFRERYSTRILDALPDMLTVFDHNANIVELASSPTTNHVEGTTSDSIINSNVKDIVPEEAYESVRHNMDKVIHTGKSSTAEHSLMLDGVLHHYENRIFPLDDQYLLCMCRDVS,failed
4,MSELIKHSSNFLAAISPDNDCSITATNDFEAMMSWLNGYKKKPINTSRNYAREVKRYLIWLSCQGLTLAQVKIEDVYEYFNLLERPTTEWIIPDKKTDKIYPTQLIKYGGLSNRSINYTHTVLGLFYSFLQDAGYLTKNPINLEHHHHHH,failed
5,MTRRAAEEILPSSLFRDPDTERVTARTGAYLKIGVIAPALMVADVWLAQQLFPGFDAGAQFISELGGPEAPMPEIFNYGMVIAGIAGLFAGAGFAHALEHAGGRRVVSAFAGLFVALTGLGAIFAGIFHWPDPMHRACGVGLGIQFAPLFAAWALWGKPDYRRLAQFSLGWFFGLLLVFALLTGVWNVRTGYDVGYWQRGHAFLGLLWLAIAAWTLERGWRAAVMSEIETASA,failed
6,MGIPEEIPPVFKTAVDVLRGASFGVADASILGYPATSMTLNQQVDNFRSMKSNWIDDFIGRSLFMIYIGTEDKLNFTKNKPNAASICHFRY,failed
7,MDALVEDDICILNHEKAHKRDTVTPVSIYSGDESVASHFALVTAYEDIKKRLKDSEKENSLLKKRIRFLEEKLIARFEEETSSVGREQVNKAYHAYREVCIDRDNLKSKLDKMNKDNSESLKVLNEQLQSKEVELLQLRTEVETQQVMRNLNPPSSNWEVEKLSCDLKIHGLEQELELMRKECSDLKIELQKAKQTDPYQEDNLKSRDLQKLSISSDNMQHAYWELKREMSNLHLVTQVQAELLRKLKTSTAIKKGKSLFTGNH,not failed
8,MWYPLAAMKGVLEALHQGDYDTAIDLLTRKALFGREREAKEAWLLLAEVYALYGEEGLEKAHHALEEAYALGGLEYDPLYRSLLAELLALEGRPEREVLPLFLPSRDPRVRYHQAQALFYLGRLEEALEVLEAGLPPHLAWRAEGLKGRILERLGRHGEAALAYERGAELALGLERYWLLLDAAAMWLEAGEGERALLALKEAEAAVGEEDPEDAATRHYLLARAHLLLGNPGLALEEIRKALALEEESGHKAYGTPLVEGQALLQLGRYEEAMASFREALARADAGERPHVLHEMGVAALDHGAYPEAEEHLRALVREEGYPYLAQAYADLAEALYRQGRYQEAEAAAREAVARGAVAAGELVLGHVAYDLLHLEEALEHYRKAAESAEEGSREWVGAQEMVVDTLAQLGYRFPEEMVRRGQAVLPYLHPADEWHAALTAYVERAQALLREGKRLN,failed
